The test addresses T1, SENP3 purified protein (UniProt Q9H4L4 1-574).
T1 construct: SENP3; cloned into pET-28a(+) between BamHI and HindIII; also called wild-type SENP3; pET-28a (+)-SENP3; source: E. coli Rosetta (DE3), purified (Ni-NTA)
The test is described as follows: co-IP; in vitro immunoprecipitation with Flag antibody using purified recombinant proteins. The following applies: both partners purified.

T1 sequence (Q9H4L4 whole entry): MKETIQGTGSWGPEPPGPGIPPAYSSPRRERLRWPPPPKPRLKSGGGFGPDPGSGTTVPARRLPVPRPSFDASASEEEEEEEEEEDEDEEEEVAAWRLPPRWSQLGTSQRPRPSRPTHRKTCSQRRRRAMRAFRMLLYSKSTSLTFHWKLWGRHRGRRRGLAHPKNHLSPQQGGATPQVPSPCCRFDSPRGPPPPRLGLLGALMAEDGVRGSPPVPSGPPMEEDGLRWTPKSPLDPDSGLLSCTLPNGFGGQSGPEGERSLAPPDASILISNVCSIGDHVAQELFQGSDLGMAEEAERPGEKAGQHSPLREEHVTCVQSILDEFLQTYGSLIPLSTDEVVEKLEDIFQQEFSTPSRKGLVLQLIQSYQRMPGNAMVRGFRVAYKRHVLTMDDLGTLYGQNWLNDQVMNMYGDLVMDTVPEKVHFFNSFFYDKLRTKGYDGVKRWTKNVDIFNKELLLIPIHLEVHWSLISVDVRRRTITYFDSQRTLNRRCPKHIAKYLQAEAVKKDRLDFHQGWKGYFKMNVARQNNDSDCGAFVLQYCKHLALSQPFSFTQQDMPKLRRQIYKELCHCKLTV

B1: Flag-SERPINB3 purified protein (natural protein, UniProt P29508 1-390, looked up)
chain: MNSLSEANTKFMFDLFQQFRKSKENNIFYSPISITSALGMVLLGAKDNTAQQIKKVLHFDQVTENTTGKAATYHVDRSGNVHHQFQKLLTEFNKSTDAYELKIANKLFGEKTYLFLQEYLDAIKKFYQTSVESVDFANAPEESRKKINSWVESQTNEKIKNLIPEGNIGSNTTLVLVNAIYFKGQWEKKFNKEDTKEEKFWPNKNTYKSIQMMRQYTSFHFASLEDVQAKVLEIPYKGKDLSMIVLLPNEIDGLQKLEEKLTAEKLMEWTSLQNMRETRVDLHLPRFKVEESYDLKDTLRTMGMVDIFNGDADLSGMTGSRGLVLSGVLHKAFVEVTEEGAEAAAATAVVGFGSSPTSTNEEFHCNHPFLFFIRQNKTNSILFYGRFSSP
notes: SERPINB3; cloned into pET-28a(+) between BamHI and HindIII; the methods name only pET-28a (+)-SERPINB3; also called SCCA1; pET-28a (+)-SERPINB3; source: E. coli BL21(DE3), purified (Ni-NTA)
As for B1, the binding result is given as “binds”.

Source of the values: PMC12847774, “SERPINB3 enhances NPM1 sumoylation via inhibiting SENP3’s activity and promotes lung tumorigenesis” (Cell Death & Disease, 2025).
